Measured values as given in patent publication US20040132094A1 (ANAPHORE, published 2004).

B1: PhTN3 phage (PhTN3-gene III fusion protein displayed on recombinant phage) (other)
chain: PAMAALQTVCLKGTKVHMKCFLAFTQTKTFHEASEDCISRGGTLSTPQTGSENDALYEYLRQSVGNEAEIWLGLNDMAAEGTWVDMTGARIAYKNWETEITAQPDGGKTENCAVLSGAANGKWFDKRCRDQLPYICQFGIVA
notes: Tested as whole phage particles rescued with M13KO7; claim 18 says hTN3 is position 5 Ala to 141 Val of it; also called human PhTN3 phages; PhCTLD; not shown: phage gene III protein fused after the PhTN3 part, as encoded by phagemid pCANTAB 5E; limits and any tag in between not
B2: Phtlec phage (Phtlec-gene III fusion protein displayed on recombinant phage) (other)
chain: PAMAEPPTQKPKKIVNAKKDVVNTKMFEELKSRLDTLAQEVALLKEQQALQTVVLKGTKVHMKVFLAFTQTKTFHEASEDCISRGGTLSTPQTGSENDALYEYLRQSVGNEAEIWLGLNDMAAEGTWVDMTGTRIAYKNWETEITAQPDGGKTENCAVLSGAANGKWFDKRCRDQLPYICQFGIVA
notes: Tested as whole phage particles rescued with M13KO7; claim 15 says htlec itself is position 5 Glu to 185 Val of it; also called human Phtlec phages; Phlec; not shown: phage gene III protein fused after the Phtlec part, as encoded by phagemid pCANTAB 5E; limits and any tag in between not

Molecular target: T1, bovine serum albumin (bovine, UniProt P02769 25-607)
T1 construct: Control coating; also called BSA
T1 sequence (P02769 25-607 limits assumed): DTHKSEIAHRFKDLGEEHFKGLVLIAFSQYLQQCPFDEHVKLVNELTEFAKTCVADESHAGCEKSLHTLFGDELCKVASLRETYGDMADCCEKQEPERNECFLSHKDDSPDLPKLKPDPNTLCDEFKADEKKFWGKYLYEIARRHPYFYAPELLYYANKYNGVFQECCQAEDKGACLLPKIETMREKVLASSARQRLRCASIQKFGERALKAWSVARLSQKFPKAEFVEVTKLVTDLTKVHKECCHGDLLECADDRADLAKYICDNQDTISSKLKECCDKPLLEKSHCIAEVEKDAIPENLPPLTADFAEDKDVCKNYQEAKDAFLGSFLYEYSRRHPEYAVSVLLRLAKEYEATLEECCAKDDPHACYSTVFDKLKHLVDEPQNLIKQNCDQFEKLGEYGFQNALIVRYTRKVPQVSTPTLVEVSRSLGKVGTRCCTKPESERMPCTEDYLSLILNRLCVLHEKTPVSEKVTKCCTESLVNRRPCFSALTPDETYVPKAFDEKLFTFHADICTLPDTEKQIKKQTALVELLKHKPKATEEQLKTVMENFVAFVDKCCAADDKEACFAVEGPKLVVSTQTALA
Assay: phage ELISA on coated BSA, HRP anti-phage detection
Protocol: Recombinant phages were isolated by precipitation with poly(ethylene glycol) (PEG 8000) and samples of Phtlec and PhTN3 phage preparations as well as a sample of helper phage were subjected to an ELISA-type sandwich assay, in which wells of a Maxisorb (Nunc) multiwell plate were first incubated with anti-human tetranectin or bovine serum albumin (BSA) and blocked in skimmed milk or skimmed milk/EDTA. Briefly, cultures of pPhtlec and pPhTN3 phagemid transformed TG1 cells were grown at 37° C. in 2×TY-medium supplemented with 2% glucose and 100 mg/L ampicillin until A₆₀₀ reached 0.5. By then the helper phage, M13K07, was added to a concentration of 5×10⁹ pfu/mL. The cultures were incubated at 37° C. for another 30 min before cells were harvested by centrifugation and resuspended in the same culture volume of 2×TY medium supplemented with 50 mg/L kanamycin and 100 mg/L ampicillin and transferred to a fresh set of flasks and grown for 16 hours at 25° C. Cells were removed by centrifugation and the phages precipitated from 20 mL culture supernatant by the addition of 6 mL of ice cold 20% PEG 8000, 2.5 M NaCl. After mixing the solution was left on ice for one hour and centrifuged at 4° C. to isolate the precipitated phages. […] Phages in the wells were detected after incubation with HRP-conjugated anti-phage conjugate (Amersham Pharmacia, code no. 27-9421-01) followed by further washing.

Row | Binder | binding result
1 | B1 | no binding
2 | B2 | no binding
